Results on 1 substance are retold here after publication PMC4319893, “Targeting Protein-Protein Interactions with Trimeric Ligands: High Affinity Inhibitors of the MAGUK Protein Family” (PLoS ONE, 2015).

Targets include PSD-95 PDZ1 (human); PSD-95 PDZ2 (human); PSD-95 PDZ1-2 (human); PSD-95 PDZ1-2-3 (human).
Holding throughout (assay): fluorescence polarisation; monomeric FP assay with monomeric fluorescent peptide probes (PSD-95 PDZ1-2, PDZ1-2-3 and single PDZ domains); 50 mM TRIS, 100 mM NaCl, 1 mM EDTA, 1 mM DTT

As for CRIPT hexapeptide YKQTSV (1), the figures for the affinity with PSD-95 PDZ1 (human) and with PSD-95 PDZ2 (human) were 97 µM and 25 µM, respectively. Further, the fold lower affinity than 17 with PSD-95 PDZ1-2 (human) and with PSD-95 PDZ1-2-3 (human) was greater than 1000 fold in each case.
